The series deals with T1, CXCL9 (CXC-motif chemokine ligand 9) (UniProt Q07325 23-125).
T1 sequence: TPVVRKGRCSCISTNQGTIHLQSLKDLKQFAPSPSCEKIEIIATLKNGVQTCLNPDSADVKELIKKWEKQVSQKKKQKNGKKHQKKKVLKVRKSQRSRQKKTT
Nature of the series: lateral flow assay (antibody-aptamer sandwich); capture antibody A in test zone; LOD 10 pg/mL CXCL9 in binding buffer, 45 min; LFA binding buffer (PBS-based, urine-like): 138 mM NaCl, 5 mM KCl, 8.1 mM Na2HPO4, 1.5 mM KH2PO4, 1 mM MgCl2, 1 mM CaCl2, 170 mM urea, 7 mM ammonium acetate, 0.25% BSA, 0.1 mg/mL salmon sperm DNA, pH 6.5; temperature not stated; Kd conditions not given. As to conditions: protein: commercial; label: gold nanoparticle (5').

B1: AuNP-G123 (ssDNA)
DNA: CACGACGCAAGGGACCACAGGGAGGGAGGGTGGGCAAAGGGCCCTAAGTCCGTAACAAAAACACAGCACGACACCGCAGAGGCA
modifications: 5' C6-disulfide linker and hexaethylene glycol spacer
As for B1, the binding result is listed as “binds”.

These data come from PMC8871475, “An Antibody-Aptamer-Hybrid Lateral Flow Assay for Detection of CXCL9 in Antibody-Mediated Rejection after Kidney Transplantation”.
